Data from patent US20090142377.

What was measured:
[1] = biological target: CH5-1 (nH5 heat-cycled three times 25 to 85 C), H5 of A/Vietnam/1203/04
[2] = biological target: CH5-2 (nH5 heat-cycled at pH 2, back to pH 7), H5 of A/Vietnam/1203/04
[3] = biological target: CH5-3 (nH5 heat-cycled at pH 12, back to pH 7), H5 of A/Vietnam/1203/04
[4] = biological target: CH5-4 (nH5 incubated with 100 mM glucose-6-phosphate for 67 h at 80 C), H5 of A/Vietnam/1203/04
[5] = biological target: cFVIII-5: Helixate FVIII kept at 95 C for 5 minutes
[6] = biological target: cross-beta FVIII-1 (cFVIII-1): Helixate FVIII kept at 4 C for 20 hours, stored at -80 C
Target sequence (chain, as listed by the source): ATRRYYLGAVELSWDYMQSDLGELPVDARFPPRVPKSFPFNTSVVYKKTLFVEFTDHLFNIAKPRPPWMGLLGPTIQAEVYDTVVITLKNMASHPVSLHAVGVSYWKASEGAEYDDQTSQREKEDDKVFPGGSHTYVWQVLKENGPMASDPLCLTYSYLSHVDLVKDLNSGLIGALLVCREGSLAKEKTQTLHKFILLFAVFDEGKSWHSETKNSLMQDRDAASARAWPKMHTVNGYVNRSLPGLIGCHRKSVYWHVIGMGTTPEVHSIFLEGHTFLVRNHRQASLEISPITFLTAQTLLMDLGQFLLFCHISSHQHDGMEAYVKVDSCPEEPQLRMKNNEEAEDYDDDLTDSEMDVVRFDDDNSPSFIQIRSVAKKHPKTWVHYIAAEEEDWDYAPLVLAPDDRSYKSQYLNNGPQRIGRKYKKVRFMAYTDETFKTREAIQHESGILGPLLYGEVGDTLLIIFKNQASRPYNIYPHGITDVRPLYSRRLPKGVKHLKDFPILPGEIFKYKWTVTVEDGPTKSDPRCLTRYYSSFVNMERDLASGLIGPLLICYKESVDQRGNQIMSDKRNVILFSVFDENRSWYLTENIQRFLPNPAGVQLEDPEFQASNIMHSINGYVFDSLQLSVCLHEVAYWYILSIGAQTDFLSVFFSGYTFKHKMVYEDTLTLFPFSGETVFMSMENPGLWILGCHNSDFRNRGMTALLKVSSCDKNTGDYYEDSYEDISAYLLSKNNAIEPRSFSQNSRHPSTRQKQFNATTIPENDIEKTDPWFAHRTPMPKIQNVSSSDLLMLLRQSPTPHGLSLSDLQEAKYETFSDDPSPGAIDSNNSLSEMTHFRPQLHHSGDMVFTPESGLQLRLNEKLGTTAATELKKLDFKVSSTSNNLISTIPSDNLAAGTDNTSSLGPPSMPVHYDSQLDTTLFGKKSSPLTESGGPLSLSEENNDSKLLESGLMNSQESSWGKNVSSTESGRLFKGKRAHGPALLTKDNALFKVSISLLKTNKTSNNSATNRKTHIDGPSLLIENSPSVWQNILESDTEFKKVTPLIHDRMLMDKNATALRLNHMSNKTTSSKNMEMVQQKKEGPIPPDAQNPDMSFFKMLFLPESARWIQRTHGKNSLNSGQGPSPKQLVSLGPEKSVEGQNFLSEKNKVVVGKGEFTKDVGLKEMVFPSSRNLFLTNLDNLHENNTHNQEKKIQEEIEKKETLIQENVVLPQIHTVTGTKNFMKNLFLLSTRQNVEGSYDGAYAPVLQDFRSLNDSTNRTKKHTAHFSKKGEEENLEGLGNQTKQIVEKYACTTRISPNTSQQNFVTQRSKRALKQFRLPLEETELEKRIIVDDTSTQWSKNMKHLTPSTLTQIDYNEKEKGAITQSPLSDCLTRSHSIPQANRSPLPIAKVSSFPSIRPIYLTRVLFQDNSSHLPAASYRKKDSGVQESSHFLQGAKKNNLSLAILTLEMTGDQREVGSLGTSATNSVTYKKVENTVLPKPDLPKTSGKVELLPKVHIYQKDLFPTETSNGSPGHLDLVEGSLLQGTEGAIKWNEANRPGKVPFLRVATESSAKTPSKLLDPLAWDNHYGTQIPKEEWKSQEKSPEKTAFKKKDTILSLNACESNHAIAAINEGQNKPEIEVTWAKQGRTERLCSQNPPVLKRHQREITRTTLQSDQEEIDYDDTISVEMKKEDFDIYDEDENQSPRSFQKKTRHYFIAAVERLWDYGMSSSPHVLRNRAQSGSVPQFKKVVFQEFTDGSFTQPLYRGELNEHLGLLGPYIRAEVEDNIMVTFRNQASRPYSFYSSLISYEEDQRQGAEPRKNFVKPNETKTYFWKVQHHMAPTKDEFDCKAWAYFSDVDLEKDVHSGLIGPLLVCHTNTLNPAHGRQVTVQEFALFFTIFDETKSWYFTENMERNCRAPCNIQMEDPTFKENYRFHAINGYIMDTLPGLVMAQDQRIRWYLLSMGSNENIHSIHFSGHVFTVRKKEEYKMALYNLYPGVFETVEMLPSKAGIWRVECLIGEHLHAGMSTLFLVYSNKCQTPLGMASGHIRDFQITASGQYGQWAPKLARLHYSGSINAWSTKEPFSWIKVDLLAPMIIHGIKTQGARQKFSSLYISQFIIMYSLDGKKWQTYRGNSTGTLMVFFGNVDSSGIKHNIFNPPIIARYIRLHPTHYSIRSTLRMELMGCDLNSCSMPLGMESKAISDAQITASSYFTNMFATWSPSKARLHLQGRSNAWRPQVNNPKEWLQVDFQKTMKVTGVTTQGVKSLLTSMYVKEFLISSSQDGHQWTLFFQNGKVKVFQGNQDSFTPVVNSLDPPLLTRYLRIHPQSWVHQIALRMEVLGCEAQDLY

[7] = biological target: cross-beta factor VIII form 12: Helixate FVIII incubated for 1 week at 37 C, stored at 4 C, P00451
[8] = biological target: T1, cross-beta nOVA: ovalbumin (chicken egg-white albumin) dissolved at 1 mg/ml in PBS, P01012
T1 chain: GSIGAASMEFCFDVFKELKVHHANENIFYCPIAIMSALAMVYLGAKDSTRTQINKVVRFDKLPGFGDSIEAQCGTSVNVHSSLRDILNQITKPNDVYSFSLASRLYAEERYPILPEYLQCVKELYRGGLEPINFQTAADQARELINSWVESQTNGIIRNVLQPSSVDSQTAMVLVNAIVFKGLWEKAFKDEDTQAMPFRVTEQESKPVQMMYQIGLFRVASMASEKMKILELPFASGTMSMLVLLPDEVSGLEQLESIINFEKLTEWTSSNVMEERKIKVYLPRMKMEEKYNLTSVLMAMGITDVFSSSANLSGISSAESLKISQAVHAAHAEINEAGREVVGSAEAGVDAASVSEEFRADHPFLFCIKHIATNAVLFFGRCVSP

[9] = biological target: T2, dOVA-1: ovalbumin 5.2 mg/ml in HBS, acidified with HCl, 40 minutes at 37 C, neutralized, P01012
T2 chain: T1 chain

[10] = biological target: T3, dOVA-2: ovalbumin 1 mg/ml in PBS, five heat cycles 30 to 85 C, P01012
T3 chain: T1 chain

[11] = biological target: T4, dOVA-3: ovalbumin 1 mg/ml in PBS, about 16 h at 75 C, P01012
T4 chain: T1 chain

[12] = biological target: non-treated H5 (nH5) of H5N1 strain A/Vietnam/1203/04 (Protein Sciences)

cFVIII-5: Helixate FVIII kept at 95 C for 5 minutes, sequence (chain, as listed by the source): as the sequence (chain, as listed by the source) above
cross-beta factor VIII form 12: Helixate FVIII incubated for 1 week at 37 C, stored at 4 C, P00451, sequence (P00451 whole entry, looked up): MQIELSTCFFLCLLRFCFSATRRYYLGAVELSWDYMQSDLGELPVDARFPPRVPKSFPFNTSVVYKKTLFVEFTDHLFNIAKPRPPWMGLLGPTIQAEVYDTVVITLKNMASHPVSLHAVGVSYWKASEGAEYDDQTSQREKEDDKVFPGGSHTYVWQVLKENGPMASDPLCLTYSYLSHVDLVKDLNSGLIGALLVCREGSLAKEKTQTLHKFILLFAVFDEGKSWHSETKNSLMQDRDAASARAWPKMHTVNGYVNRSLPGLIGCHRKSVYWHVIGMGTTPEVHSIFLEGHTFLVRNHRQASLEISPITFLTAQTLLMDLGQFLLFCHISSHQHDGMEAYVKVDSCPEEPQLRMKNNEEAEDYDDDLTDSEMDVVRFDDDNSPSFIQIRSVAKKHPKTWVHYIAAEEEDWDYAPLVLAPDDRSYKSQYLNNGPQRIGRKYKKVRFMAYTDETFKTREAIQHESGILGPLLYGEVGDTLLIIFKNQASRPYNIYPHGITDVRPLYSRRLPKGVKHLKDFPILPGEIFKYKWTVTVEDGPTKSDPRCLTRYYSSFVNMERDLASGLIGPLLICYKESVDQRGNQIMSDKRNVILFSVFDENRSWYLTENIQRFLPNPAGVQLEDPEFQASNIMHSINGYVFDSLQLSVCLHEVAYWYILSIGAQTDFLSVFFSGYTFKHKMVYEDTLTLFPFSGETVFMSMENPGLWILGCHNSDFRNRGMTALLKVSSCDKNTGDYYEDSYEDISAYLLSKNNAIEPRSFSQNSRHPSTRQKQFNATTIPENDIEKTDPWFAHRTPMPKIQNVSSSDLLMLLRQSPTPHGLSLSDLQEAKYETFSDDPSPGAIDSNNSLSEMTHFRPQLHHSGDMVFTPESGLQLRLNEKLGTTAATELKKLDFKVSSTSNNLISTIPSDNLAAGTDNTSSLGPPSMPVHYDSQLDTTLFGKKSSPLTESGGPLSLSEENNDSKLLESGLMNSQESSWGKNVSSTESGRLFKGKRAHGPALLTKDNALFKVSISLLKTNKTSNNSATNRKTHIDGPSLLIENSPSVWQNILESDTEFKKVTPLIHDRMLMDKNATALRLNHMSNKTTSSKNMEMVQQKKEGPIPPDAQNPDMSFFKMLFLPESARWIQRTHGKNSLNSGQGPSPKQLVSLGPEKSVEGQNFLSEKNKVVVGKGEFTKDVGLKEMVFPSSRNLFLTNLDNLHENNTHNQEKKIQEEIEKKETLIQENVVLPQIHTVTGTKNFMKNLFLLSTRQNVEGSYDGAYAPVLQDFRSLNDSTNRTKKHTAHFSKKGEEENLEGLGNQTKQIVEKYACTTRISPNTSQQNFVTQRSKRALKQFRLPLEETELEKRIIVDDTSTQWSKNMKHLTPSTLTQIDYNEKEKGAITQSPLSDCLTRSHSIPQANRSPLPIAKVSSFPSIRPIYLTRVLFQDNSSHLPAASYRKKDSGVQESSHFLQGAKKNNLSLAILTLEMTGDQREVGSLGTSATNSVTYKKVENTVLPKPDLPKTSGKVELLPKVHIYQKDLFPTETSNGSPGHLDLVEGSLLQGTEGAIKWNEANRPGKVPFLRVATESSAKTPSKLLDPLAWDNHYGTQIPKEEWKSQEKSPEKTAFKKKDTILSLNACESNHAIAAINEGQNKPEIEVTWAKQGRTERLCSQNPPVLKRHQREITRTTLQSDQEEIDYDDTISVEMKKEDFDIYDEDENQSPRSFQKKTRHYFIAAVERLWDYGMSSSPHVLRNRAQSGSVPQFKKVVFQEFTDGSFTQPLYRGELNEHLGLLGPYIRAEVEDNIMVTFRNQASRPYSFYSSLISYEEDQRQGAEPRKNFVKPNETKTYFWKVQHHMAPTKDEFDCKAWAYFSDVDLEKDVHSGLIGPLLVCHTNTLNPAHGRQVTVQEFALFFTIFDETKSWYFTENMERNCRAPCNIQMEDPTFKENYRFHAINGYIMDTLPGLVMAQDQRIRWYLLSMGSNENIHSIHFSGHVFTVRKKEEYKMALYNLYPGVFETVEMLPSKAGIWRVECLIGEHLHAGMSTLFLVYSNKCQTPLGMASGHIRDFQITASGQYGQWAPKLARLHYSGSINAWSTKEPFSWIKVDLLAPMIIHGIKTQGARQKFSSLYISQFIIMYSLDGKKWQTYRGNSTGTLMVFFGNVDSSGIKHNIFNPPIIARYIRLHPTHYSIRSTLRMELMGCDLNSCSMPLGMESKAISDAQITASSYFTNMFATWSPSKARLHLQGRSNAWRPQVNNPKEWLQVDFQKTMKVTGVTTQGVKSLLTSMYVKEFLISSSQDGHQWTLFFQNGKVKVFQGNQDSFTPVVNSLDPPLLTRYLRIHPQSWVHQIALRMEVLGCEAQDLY

B1: tissue type plasminogen activator (tPA; Actilyse, Boehringer-Ingelheim) (protein)
chain: SYQVICRDEKTQMIYQQHQSWLRPVLRSNRVEYCWCNSGRAQCHSVPVKSCSEPRCFNGGTCQQALYFSDFVCQCPEGFAGKCCEIDTRATCYEDQGISYRGTWSTAESGAECTNWNSSALAQKPYSGRRPDAIRLGLGNHNYCRNPDRDSKPWCYVFKAGKYSSEFCSTPACSEGNSDCYFGNGSAYRGTHSLTESGASCLPWNSMILIGKVYTAQNPSAQALGLGKHNYCRNPDGDAKPWCHVLKNRRLTWEYCDVPSCSTCGLRQYSQPQFRIKGGLFADIASHPWQAAIFAKHRRSPGERFLCGGILISSCWILSAAHCFQERFPPHHLTVILGRTYRVVPGEEEQKFEVEKYIVHKEFDDDTYDNDIALLQLKSDSSRCAQESSVVRTVCLPPADLQLPDWTECELSGYGKHEALSPFYSERLKEAHVRLYPSSRCTSQHLLNRTVTDNMLCAGDTRSGGPQANLHDACQGDSGGPLVCLNDGRMTLVGIISWGLGCGQKDVPGVYTKVTNYLDWIRDNMRP
For B1, the “tPA mediated plasminogen activation assay” value [1] was “cH5-1 (50% of standard)”, the “tPA mediated plasminogen activation assay” value [2] was “cH5-2 (150% of standard)” and the “tPA mediated plasminogen activation assay” value [3] was “cH5-3 (200% of standard)”. For the same protein, the “tPA mediated plasminogen activation assay” value [4] was “cH5-4 (37% of standard)”, the “tPA/Plg activation assay, compared to a misfolded ovalbumin standard” value [5] was “cross-beta fVIII forms 1, 12 and 5 is approximately 50, 75 and 125%” and the “tPA/Plg activation assay, compared to a misfolded ovalbumin standard” value [6] was “cross-beta fVIII forms 1, 12 and 5 is approximately 50, 75 and 125%”. For the same protein, the “tPA/Plg activation assay, compared to a misfolded ovalbumin standard” value [7] was “cross-beta fVIII forms 1, 12 and 5 is approximately 50, 75 and 125%”, the tPA activation potency, activation at 10 ug/mL (% of reference) [8] was 48.8 and the tPA activation potency, activation at 25 ug/mL (% of reference) [8] was 48.1. For the same protein, the tPA activation potency, activation at 10 ug/mL (% of reference) [9] was 97.4, the tPA activation potency, activation at 25 ug/mL (% of reference) [9] was 136 and the tPA activation potency, activation at 10 ug/mL (% of reference) [10] was 107. For the same protein, the tPA activation potency, activation at 25 ug/mL (% of reference) [10] was 107, the tPA activation potency, reference dOVA-2 at 80 ug/mL (column 10 ug/mL) (% of reference) [10] was 100 and the tPA activation potency, reference dOVA-2 at 80 ug/mL (column 25 ug/mL) (% of reference) [10] was 100. For the same protein, the tPA activation potency, activation at 10 ug/mL (% of reference) [11] was 60.9, the tPA activation potency, activation at 25 ug/mL (% of reference) [11] was 79 and the “tPA mediated plasminogen activation assay” value [12] was “nH5 (140% of standard)”.
